{"source": "paper PMC3749969", "key": {"[1]": {"target": "Merkel cell polyomavirus major capsid protein VP1 (native virions, isolate R17b) (Merkel cell polyomavirus (MCV), isolate R17b)", "test": "co-sedimentation; purified native virions and high-VP2 pseudovirions; SDS-PAGE, SYPRO Ruby stain, densitometry against BSA standards; apparent ratio"}, "[2]": {"target": "Merkel cell polyomavirus major capsid protein VP1 (pseudovirions, codon-modified gene) (Merkel cell polyomavirus (MCV))", "test": "co-sedimentation; purified native virions and high-VP2 pseudovirions; SDS-PAGE, SYPRO Ruby stain, densitometry against BSA standards; apparent ratio"}}}
{"substance": "Merkel cell polyomavirus minor capsid protein VP2 (native virions, isolate R17b) (natural protein)", "values": [{"measurement": "stoichiometry N (VP2 per 5 VP1)", "setting": "[1]", "value": 2}]}
{"substance": "Merkel cell polyomavirus minor capsid protein VP2 (pseudovirions, codon-modified gene) (natural protein)", "values": [{"measurement": "stoichiometry N (VP2 per 5 VP1)", "setting": "[2]", "value": 1.4}]}
